The results in this text go back to patent US20230357810A1, “NEOPINONE ISOMERASE AND METHODS OF USING” (Antheia, Inc., priority 2017, published 2023).

One data set relates to thebaine. Description: NISO-coupled T6ODM-COR-CODM assay with thebaine as substrate, LC-MS/MS. Type of data set: biochemical. As to conditions: CODM plus NISO vs without NISO, 100 µM thebaine, 30° C., 1 hr.
Data set [1] deals with neopine formation in the presence of COR. Description: Neopine formation with PR10-8 mutant proteins, NISO or NISO mutants and COR (FIG. 13). The format is biochemical. As to the method: Neopine formation in the presence of the mutant proteins and COR was assessed, and compared to neopine formation using COR and NISOΔ1, NISOΔ2, and NISOΔ3. In the absence of NISO, neopine constitutes about 25% of the reaction product. Neopine formation can be reduced to 5% or less in the presence of NISO. Consistent with the previous experiment, in the presence of NISOΔ1, NISOΔ2, or NISOΔ3 an increase in neopine is observed, relative to wildtype NISO. […] Thus the relatively modest sequence differences between Domains Δl, Δ2, Δ3, Δ4 of NISO and PR10-8 nevertheless are significant with respect to the ability to suppress neopine production in the presence of COR.

Data set [2] concerns codeinone and morphinone substrates. Briefly: COR-B assay alone or together with NISO, substrate conversion and products formed (FIG. 16). The format is biochemical. The note with it: 20 mins. As to the method:
Assay mixtures containing purified recombinant COR-B (~0.1 µg) alone, or purified recombinant COR-B (~0.1 µg) together with purified recombinant NISO (0.196 µg) (1:4 molar ratio), Na-ascorbate cofactor, and 1 mM NADPH, were incubated for 20 mins using one of the following substrates: codeine, neopine, morphine, neopmorphine, codeinone and morphinone. The percentages substrate conversion and products formed were determined.

In data set [3] the test system is Yeast strains with chromosomally integrated T6ODM. Briefly: Hydrocodone production in yeast strains with chromosomally integrated T6ODM (FIG. 14). The format is cell-based.
The mark [4] stands for this setting: COR-B and NISO together vs COR-B alone.

B1: NISO: neopinone isomerase polypeptide of Papaver somniferum, SEQ.ID NO: 2; recombinant, His6-tagged, from E. coli (protein, listed as Papaver somniferum)
chain: MDSVSAALVFHSSIYLCAMAHHGVSGLVGKIVTELEVNCNADEFYKILKRDEDVPRAVSDLFPPVKIAKGDGLVSGCIKEWDCVLDGKAMSGKEETTHNDETRTLRHRELEGDLMKDYKKFDSIIEVNPKPNGHGSIVTWSIEYEKMNEDSPAPFAYLASFHQNVVEVDSHLCLSE
modifications: His6 tag
notes: recombinant, His6-tagged, from E. coli
As to B1, in the data set on thebaine, the codeine production entry was “increases substantially”, the morphine production entry was “increases” and the neopine production result is “reduced”. In addition, the “neopine formation (share of the reaction product)” value in data set [1] (about 25% in the absence of NISO) is no more than 5%. In addition, in data set [2] (setting [4]), the “product codeine formed from codeinone substrate” value was “substantial increase” and the “product morphine formed from morphinone substrate” value was “substantial increase”. Further, the “codeinone substrate turnover increase” value in data set [2] (COR-B plus NISO (1:4 molar ratio) vs COR-B alone) is on record as roughly 2 fold.

B2: MorB: morphine reductase from Pseudomonas putida M10, SEQ.ID NO: 22, expressed in yeast (protein, listed as Papaver somniferum)
chain: MPDTSFSNPGLFTPLQLGSLSLPNRVIMAPLTRSRTPDSVPGRLQQIYYGQRASAGLIISEATNISPTARGYVYTPGIWTDAQEAGWKGVVEAVHAKGGRIALQLWHVGRVSHELVQPDGQQPVAPSALKAEGAECFVEFEDGTAGLHPTSTPRALETDEIPGIVEDYRQAAQRAKRAGFDMVEVHAANACLPNQFLATGTNRRTDQYGGSIENRARFPLEVVDAVAEVFGPERVGIRLTPFLELFGLTDDEPEAMAFYLAGELDRRGLAYLHFNEPDWIGGDITYPEGFREQMRQRFKGGLIYCGNYDAGRAQARLDDNTADAVAFGRPFIANPDLPERFRLGAALNEPDPSTFYGGAEVGYTDYPFLDNGHDRLG
In the case of B2, in data set [3], the production of hydrocodone result was “trace amounts”.

B3: PR10-8: PR-polypeptide of Papaver somniferum similar to NISO, SEQ.ID NO: 38 (protein, listed as Papaver somniferum)
chain: MAHHGVSGLVGKLVTQLEVNCDADEFYKIWKHHEEVPKAVSHFFPAVKVVKGDGLVSGCIKEWHYILEGKAMSAMEETTHNDETRTLHHQVVEGEVMKDYKAIASIIQVNPNPNGHGSIVTWSIEYEKMNEDSPTPFAYLEFFHQNIIDMNSHLYVGSDSHLHVDE
For B3, in data set [1], the “ability to reduce neopine production” value is “unable to reduce neopine production”.
